This experiment has as its system KATO III cell line (human gastric cancer cells). Kind of experiment: Cell viability test (same method as for Calu-6) in KATO III cells. The note with it: average DAR of 2 to 3, read-out: EC/IC50 values for cell viability. The format is cell-based. The protocol: Human Calu-6 cells (manufacturer: Procell, product code: CL-327, human lung cancer cells) were resuscitated and seeded into a 96-well culture plate. The culture medium used was DMEM/F12 (manufacturer: Hyclone, product code: SH30023.01), supplemented with 10% FBS (manufacturer: Gibco, product code: 10099141). Each well contained 2,500 cells in 150 µl of medium. The plate was incubated at 37°C in a 5% CO2 incubator. Approximately 20 hours later, 50 µl of medium containing different antibody-drug conjugates were added to each well, setting the final drug concentrations at 0 to 100 nM across 12 dilution gradients (initial concentration: 100 nM; subsequent 5-fold serial dilutions across 10 gradients; last gradient containing no drug, and each sample was tested in duplicate wells). […] After a 2-minute reaction, fluorescence intensity was measured using a Tecan Spark instrument, following the reagent kit's recommended protocol. […] EC/IC50 values were calculated using four-parameter fitting.
Further, following the above examples, antibody-drug conjugates (ADCs) of Trastuzumab and Bemarituzumab conjugated with the linker-toxin MC-VAGGFG-PAB-Eribulin were prepared for validation. […] Activity was measured using the SK-BR-3 cell line (human breast cancer cells) and KATO III cell line (human gastric cancer cells).

B1: Bemarituzumab MC-VAGGFG-PAB-Eribulin: Bemarituzumab conjugated with the linker-toxin MC-VAGGFG-PAB-Eribulin (conjugate, chains of the INN, looked up)
VH: QVQLVQSGAEVKKPGSSVKVSCKASGYIFTTYNVHWVRQAPGQGLEWIGSIYPDNGDTSYNQNFKGRATITADKSTSTAYMELSSLRSEDTAVYYCARGDFAYWGQGTLVTVSS
VL: DIQMTQSPSSLSASVGDRVTITCKASQGVSNDVAWYQQKPGKAPKLLIYSASYRYTGVPSRFSGSGSGTDFTFTISSLQPEDIATYYCQQHSTTPYTFGQGTKLEIK
modifications: MC-VAGGFG-PAB-Eribulin
Turning to B1, the IC50 came to 0.097 nM.
